{"source": "patent US7727950B2", "about": "“Methods and reagents for assaying protein kinase activity” (The University of Dundee, priority 2002, dated 2010)", "proteins": {"B1": {"name": "S6K1 (Homo sapiens; T412E) (protein)", "chain": "MRRRRRRDGFYPAPDFRDREAEDMAGVFDIDLDQPEDAGSEDELEEGGQLNESMDHGGVGPYELGMEHCEKFEISETSVNRGPEKIRPECFELLRVLGKGGYGKVFQVRKVTGANTGKIFAMKVLKKAMIVRNAKDTAHTKAERNILEEVKHPFIVDLIYAFQTGGKLYLILEYLSGGELFMQLEREGIFMEDTACFYLAEISMALGHLHQKGIIYRDLKPENIMLNHQGHVKLTDFGLCKESIHDGTVTHTFCGTIEYMAPEILMRSGHNRAVDWWSLGALMYDMLTGAPPFTGENRKKTIDKILKCKLNLPPYLTQEARDLLKKLLKRNAASRLGAGPGDAGEVQAHPFFRHINWEELLARKVEPPFKPLLQSEEDVSQFDSKFTRQTPVDSPDDSTLSESANQVFLGFEYVAPSVLES", "notes": "made in house; host or cells: Sf21 insect cells"}, "B2": {"name": "PRAK (Homo sapiens) (protein)", "chain": "MSEESDMDKAIKETSILEEYSINWTQKLGAGISGPVRVCVKKSTQERFALKILLDRPKARNEVRLHMMCATHPNIVQIIEVFANSVQFPHESSPRARLLIVMEMMEGGELFHRISQHRHFTEKQASQVTKQIALALRHCHLLNIAHRDLKPENLLFKDNSLDAPVKLCDFGFAKIDQGDLMTPQFTPYYVAPQVLEAQRRHQKEKSGIIPTSPTPYTYNKSCDLWSLGVIIYVMLCGYPPFYSKHHSRTIPKDMRRKIMTGSFEFPEEEWSQISEMAKDVVRKLLKVKPEERLTIEGVLDHPWLNSTEALDNVLPSAQLMMDKAVVAGIQQAHAEQLANMRIQDLKVSLKPLHSVNNPILRKRKLLGTKPKDSVYIHDHENGAEDSNVALEKLRDVIAQCILPQAGKGENEDEKLNEVMQEAWKYNRECKLLRDTLQSFSWNGRGFTDKVDRLKLAEIVKQVIEEQTTSHESQ", "notes": "as for B1"}, "B3": {"name": "SGK1 (Homo sapiens; S422D) (protein)", "chain": "ISQPQEPELMNANPSPPPSPSQQINLGPSSNPHAKPSDFHFLKVIGKGSFGKVLLARHKAEEVFYAVKVLQKKAILKKKEEKHIMSERNVLLKNVKHPFLVGLHFSFQTADKLYFVLDYINGGELFYHLQRERCFLEPRARFYAAEIASALGYLHSLNIVYRDLKPENILLDSQGHIVLTDFGLCKENIEHNSTTSTFCGTPEYLAPEVLHKQPYDRTVDWWCLGAVLYEMLYGLPPFYSRNTAEMYDNILNKPLQLKPNITNSARHLLEGLLQKDRTKRLGAKDDFMEIKSHVFFSLINWDDLINKKITPPFNPNVSGPNDLRHFDPEFTEEPVPNSIGKSPDSVLVTASVKEAAEAFLGFDYAPPTDSFL", "notes": "as for B1"}}, "key": {"[1]": {"substrate": "CC(C)C[C@H](NC(=O)[C@H](CCCCN)NC(=O)[C@@H](N)CCCCN)C(=O)N[C@@H](CC(N)=O)C(=O)N[C@@H](CCCNC(=N)N)C(=O)N[C@H](C(=O)N[C@@H](CC(C)C)C(=O)N[C@@H](CO)C(=O)N[C@@H](Cc1ccccc1)C(=O)N[C@@H](C)C(=O)N[C@@H](CCC(=O)O)C(=O)N1CCC[C@H]1C(=O)NCC(=O)O)[C@@H](C)O", "test": "Kinetic parameters for peptide phosphorylation, radioactive filter-binding assay", "type": "biochemical, human", "details": "30.0 °C", "text": "(§1) Apart from the AMP-activated protein kinase (AMPK, a gift from Drs S. Hawley and D. G. Hardie), cGMP-dependent protein kinase (PKG, a generous gift from Drs Susan Lohmann and Ulrich Walter, University of Wurzburg, Germany) and the catalytic subunit of cyclic AMP-dependent protein kinase (PKA, a gift from Dr C. Smythe), which were isolated from rat liver, bovine lung and bovine heart, respectively, all other protein kinases were expressed as either GST-fusion or His-tagged proteins (by a person, a person, Dr A. Paterson or a person, in this Division). The expressed proteins all corresponded to the human sequences apart from the rat Rho-dependent protein kinase (ROCK-II) and rat mitogen-activated protein kinase (MAPK) activated kinase-1a (MAPKAP-K1a, also called RSK). GST-fusion proteins were purified on GSH-agarose (Amersham Pharmacia Biotech, Amersham, UK) and His-tagged proteins on Ni-NTA agarose (Qiagen) essentially according to the manufacturer's instructions. All the protein kinases used in this study are available from Upstate Biotechnology Inc. (Lake Placid, N.Y., USA), apart from the α-isoform of calmodulin-dependent protein kinase II (CaMKII), MAPKAP-K3 and PKG. […]\n(§2) All protein kinase assays were linear with respect to time. […] All papers were subsequently washed a further three times in phosphoric acid, once in acetone, then dried and counted for radioactivity. […] The plates were then washed six times (five min per wash) in PBS, 0.1% Tween 20 and binding of the phospho-specific antibody detected by incubating the plates with peroxidase-conjugated anti-sheep antibodies (Pierce). […] Signals were quantitated on LAS-1000IR software (FujiFilm). […]"}, "[2]": {"substrate": "CC(C)C[C@H](NC(=O)[C@@H](NC(=O)[C@H](CCCNC(=N)N)NC(=O)[C@H](C)NC(=O)[C@@H](N)CCCNC(=N)N)[C@@H](C)O)C(=O)N[C@@H](CO)C(=O)N[C@@H](Cc1ccccc1)C(=O)N[C@@H](C)C(=O)N[C@@H](CCC(=O)O)C(=O)N1CCC[C@H]1C(=O)NCC(=O)O", "test": "Kinetic parameters for peptide phosphorylation, radioactive filter-binding assay", "type": "biochemical, human", "details": "other: PRAK; Standard Substrate = …; 30.0 °C", "text": "as §1, §2"}}, "data": [{"protein": "B1", "values": [{"measurement": "Km", "setting": "[1]; other: S6K1, Standard Substrate = LRRASLG", "value": 6, "unit": "µM"}]}, {"protein": "B2", "values": [{"measurement": "Km", "setting": "[2]", "value": 40, "unit": "µM"}]}, {"protein": "B3", "values": [{"measurement": "Km", "setting": "[1]; other: SGK1, Standard Substrate = …", "value": 4, "unit": "µM"}]}]}
